Laboratory results from paper PMC4652608, “The inhibition of human farnesyl pyrophosphate synthase by nitrogen-containing bisphosphonates. Elucidating the role of active site threonine 201 and tyrosine 204 residues using enzyme mutants^” (Bone, 2015).

Experiments:
FPPS synthase assay [1] = substrate: C=C(C)CCO[P@@](=O)(O)OP(=O)(O)O; assay: FPPS synthase assay; format: biochemical, Homo sapiens; details: co-substrate GPP
Text: (§1) FPPS synthase assay on human farnesyl pyrophosphate synthase (FPPS; wtFPPS)

FPPS synthase assay [2] = substrate: CC(C)=CCC/C(C)=C/COP(=O)(O)OP(=O)(O)O; assay: FPPS synthase assay; format: biochemical, Homo sapiens; details: co-substrate IPP
Text: as §1

B1: human farnesyl pyrophosphate synthase (FPPS; wtFPPS) (Homo sapiens) (protein)
chain: MNGDQNSDVYAQEKQDFVQHFSQIVRVLTEDEMGHPEIGDAIARLKEVLEYNAIGGKYNRGLTVVVAFRELVEPRKQDADSLQRAWTVGWCVELLQAFFLVADDIMDSSLTRRGQICWYQKPGVGLDAINDANLLEACIYRLLKLYCREQPYYLNLIELFLQSSYQTEIGQTLDLLTAPQGNVDLVRFTEKRYKSIVKYKTAFYSFYLPIAAAMYMAGIDGEKEHANAKKILLEMGEFFQIQDDYLDLFGDPSVTGKIGTDIQDNKCSWLVVQCLQRATPEQYQILKENYGQKEAEKVARVKALYEELDLPAVFLQYEEDSYSHIMALIEQYAAPLPPAVFLGLARKIYKRRK
notes: recombinant, pET-28a based LIC vector; TEV protease-cleaved for crystals; homodimer of 42 kDa monomers
Km (FPPS synthase assay [1]): 1.8 ± 0.3 µM
kcat (FPPS synthase assay [1]): 0.42 s⁻¹
kcat/Km (FPPS synthase assay [1]): 230000 M⁻¹ s⁻¹
Km (FPPS synthase assay [2]): 2.1 ± 0.2 µM
kcat (FPPS synthase assay [2]): 0.42 s⁻¹
kcat/Km (FPPS synthase assay [2]): 200000 M⁻¹ s⁻¹
